Where a chain is given by its changes, count along the chain named. In names and notes the source's numbering stands.
B1: IL-2 mutant G438P19 (ligand)
chain: PTSSSTRKTQLQLEHLMSDLQMILNGINNYKNPKLTRMLTFKFYMPWKATELKHLQCLEEELKPLEEVLNLAQSKNFHLRPRDLISNINVIVLELKGSETTFMCEYADETATIVEFLNRWITFSQSSSQH
notes: Printed: lack of the first amino acid A, K8R/L18M/L19S/K48W/A125S, IISTLT from position 128 mutated to SSQH; also called GP19
B2: IL-2 mutant G438 (ligand)
chain: APTSSSTRKTQLQLEHLLLDLQMILNGINNYKNPKLTRMLTFKFYMPWKATELKHLQCLEEELKPLEEVLNLAQSKNFHLRPRDLISNINVIVLELKGSETTFMCEYADETATIVEFLNRWITFAQSIISTLT
B3: IL-2 mutant G438P12 (ligand)
chain: B2 chain with L18M, L19S, W48R
B4: IL-2 mutant G438P10 (ligand)
chain: B2 chain with L18M, L19S, H79E, R81D
notes: also called GP10
B5: IL-2 mutant G438P14 (ligand)
chain: B2 chain with L18M, L19S, R38E, T41E
notes: also called GP14
B6: IL-2 mutant G438P15 (ligand)
chain: B2 chain with L18M, L19S, R38E, T41E, Y45R, L72F
notes: also called GP15
B7: IL-2 mutant G438P3 (ligand)
chain: B2 chain with G27C, F78C
notes: also called GP3
B8: IL-2 mutant G438P8 (ligand)
chain: B2 chain with L72F, R81D
notes: also called GP8
B9: IL-2 mutant G438P6 (ligand)
chain: B2 chain with F42A, K43D
notes: also called GP6
B10: IL-2 mutant G438P16 (ligand)
chain: B2 chain with L18M, L19S, R38E, T41E, P82A, S87D
notes: also called GP16
B11: IL-2 mutant G496 (ligand)
chain: B2 chain with K43W, K54W, K64H, K97R
B12: IL-2 mutant G438P2 (ligand)
chain: B2 chain with K35E, K43D
notes: also called GP2
B13: IL-2 mutant G498 (ligand)
chain: B2 chain with K43W, K54W, K64H, K97F
B14: IL-2 mutant G493 (ligand)
chain: B2 chain with K43W, K54W, K64H, K97E
B15: IL-2 mutant G438P9 (ligand)
chain: B2 chain with L18M, L19S, F42A
notes: also called GP9
B16: IL-2 mutant G438P17 (ligand)
chain: B2 chain with L18M, L19S, R81D, P82T, R83E, S87D
notes: also called GP17
B17: IL-2 mutant G438P7 (ligand)
chain: B2 chain with R38E, T41E
notes: also called GP7
B18: IL-2 mutant G438P1 (ligand)
chain: B2 chain with L18M, L19S
notes: also called GP1

Legend:
Test in all cases: BLI (Fortebio)
[1] = biological target: T1, IL-2Rα(CD25) (UniProt P01589 22-213, limits assumed)
T1 construct: also called IL-2α
T1 sequence (looked up): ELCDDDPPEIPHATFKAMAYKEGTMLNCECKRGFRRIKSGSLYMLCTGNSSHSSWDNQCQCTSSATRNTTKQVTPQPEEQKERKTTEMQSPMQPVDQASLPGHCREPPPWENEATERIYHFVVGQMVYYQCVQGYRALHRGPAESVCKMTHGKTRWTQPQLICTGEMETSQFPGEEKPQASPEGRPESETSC
Description: (§1) The affinity between IL-2 mutants and their receptors was detected by Bio-Layer Interferometry (BLI).
(§2) Receptor solution: IL-2Rα(CD25), IL-2Rβ(CD122) and IL-2Rβ/γ receptor samples were diluted to 15-20 μg/mL with 1×Kinetics buffer, mixed and stored in a dark place.
(§3) Samples were added to the sample wells according to the protocol design, and 200 μL of reagent or sample was added to each well.

[2] = biological target: T2, IL-2Rβ(CD122) (UniProt P14784 27-239, limits assumed)
T2 construct: also called IL-2β
T2 sequence (looked up): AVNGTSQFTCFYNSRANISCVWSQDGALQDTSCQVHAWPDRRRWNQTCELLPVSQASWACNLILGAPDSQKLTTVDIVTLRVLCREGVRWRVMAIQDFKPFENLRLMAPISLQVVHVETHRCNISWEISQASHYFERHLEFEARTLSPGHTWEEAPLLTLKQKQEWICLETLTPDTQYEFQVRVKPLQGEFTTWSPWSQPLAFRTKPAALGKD
Description: as §1, §2, §3

[3] = biological target: T3, IL-2Rβ/γ receptor (UniProt P14784 27-239; P31785 23-262, limits assumed)
T3 sequence (looked up) 1: T2 sequence (looked up)
T3 sequence (looked up) 2: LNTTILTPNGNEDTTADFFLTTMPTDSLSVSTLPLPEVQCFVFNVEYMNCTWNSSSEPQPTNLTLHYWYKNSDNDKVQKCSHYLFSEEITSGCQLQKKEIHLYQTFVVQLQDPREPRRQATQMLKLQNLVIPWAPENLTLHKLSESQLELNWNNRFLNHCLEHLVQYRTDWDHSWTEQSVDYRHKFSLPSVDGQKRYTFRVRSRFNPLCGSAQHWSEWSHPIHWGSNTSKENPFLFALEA
Description: as §1, §2, §3

| Binder | Kd [1] | Kd [2] | binding result [1] | Kd [3] | binding result [2] |
| --- | --- | --- | --- | --- | --- |
| B1 | 38.6 nM | 12.9 nM |  |  |  |
| B2 | 13.4 nM | 15.3 nM |  |  |  |
| B3 | 8.48 nM | 7.29 nM |  |  |  |
| B4 | 36.1 nM | 30.5 nM |  |  |  |
| B5 |  | 42600 nM | no binding | 39.6 nM |  |
| B6 | 170 nM | 87.1 nM |  | 136000 nM |  |
| B7 | 26.4 nM | 12.1 nM |  |  |  |
| B8 | 131 nM | 12 nM |  | 32.7 nM |  |
| B9 | 119 nM | 52.3 nM |  |  |  |
| B10 | 353 nM | 142 nM |  |  |  |
| B11 |  |  | no binding |  | no binding |
| B12 | 68.9 nM | 18.3 nM |  |  |  |
| B13 |  |  | no binding |  | no binding |
| B14 |  |  | no binding |  | no binding |
| B15 | 34.7 nM | 26.4 nM |  |  |  |
| B16 | 94.9 nM | 61 nM |  |  |  |
| B17 | 178000 nM | 64.2 nM |  | 35.4 nM |  |
| B18 | 17.9 nM | 18.3 nM |  |  |  |

Reference: US20250154217A1 (ZONHON BIOPHARMA INSTITUTE, published 2025)
